No end group written: not given here. *: point of attachment. Succinimide(1-Et,3-yl) = CCN1C(=O)CC(*)C1=O
T1: human CRH receptor type 2 (human, UniProt Q13324 1-411)
T1 sequence (looked up): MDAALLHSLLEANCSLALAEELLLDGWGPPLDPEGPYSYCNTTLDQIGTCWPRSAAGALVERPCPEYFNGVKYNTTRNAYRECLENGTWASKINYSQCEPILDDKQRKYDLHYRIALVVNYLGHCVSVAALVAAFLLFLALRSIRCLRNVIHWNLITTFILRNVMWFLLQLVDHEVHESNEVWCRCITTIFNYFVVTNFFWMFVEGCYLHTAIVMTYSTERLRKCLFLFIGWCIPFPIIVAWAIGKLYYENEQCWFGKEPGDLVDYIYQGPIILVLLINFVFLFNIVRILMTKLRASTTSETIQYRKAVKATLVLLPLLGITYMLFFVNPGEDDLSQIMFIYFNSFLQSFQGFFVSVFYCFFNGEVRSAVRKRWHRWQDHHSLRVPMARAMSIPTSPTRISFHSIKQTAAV


Target: T1, human CRH receptor type 2
Assay: cell-based or functional assay

| Binder | Log DR against h-SCP, cAMP [log10 ratio] | pA50, cAMP |
| --- | --- | --- |
| TKFTLSLDVPTNIMNLLFNIAKAKNLRAQCAANAHLMAQI-NH2 [Cys-variant CRHR2 peptide agonist, SEQ ID NO: 31] | 1.61 | 8.02 -log M |
| TKFTLSLDVPTNIMNLLFNIAKAKNLRAQAACNAHLMAQI-NH2 [Cys-variant CRHR2 peptide agonist, SEQ ID NO: 33] | 0.45 | 9.07 -log M |
| TKFTLSLDVPTNIMNLLFNIAKAKNLRACAAANAHLMAQI (NES-PEG (about 20 kDa) on Cys 29; C-terminal amide) [Pegylated Cys-variant CRHR2 peptide agonist (NES linker, PEG about 20 kDa), SEQ ID NO: 83] | 1.63 | 7.91 -log M |
| TKFTLSLDVPTNIMNLLFNIAKAKNLRAQCAANAHLMAQI (NES-PEG (about 20 kDa) on Cys 30; C-terminal amide) [Pegylated Cys-variant CRHR2 peptide agonist (NES linker, PEG about 20 kDa), SEQ ID NO: 84] | ~2.84 | ~6.82 -log M |
| TKFTLSLDVPTNIMNLLFNIAKAKNLRAQAAANAHLMCQI-NH2 [Cys-variant CRHR2 peptide agonist, SEQ ID NO: 39] | 0.41 | 9.21 -log M |
| TKFTLSLDVPTNIMNLLFNIAKAKNLRAQAAANAHLMAQC(Succinimide(1-Et,3-yl))-NH2 (N-terminus assumed; SMILES CC[C@H](C)[C@H](NC(=O)[C@H](CC(N)=O)NC(=O)[C@H](Cc1ccccc1)NC(=O)[C@H](CC(C)C)NC(=O)[C@H](CC(C)C)NC(=O)[C@H](CC(N)=O)NC(=O)[C@H](CCSC)NC(=O)[C@@H](NC(=O)[C@H](CC(N)=O)NC(=O)[C@@H](NC(=O)[C@@H]1CCCN1C(=O)[C@@H](NC(=O)[C@H](CC(=O)O)NC(=O)[C@H](CC(C)C)NC(=O)[C@H](CO)NC(=O)[C@H](CC(C)C)NC(=O)[C@@H](NC(=O)[C@H](Cc1ccccc1)NC(=O)[C@H](CCCCN)NC(=O)[C@@H](N)[C@@H](C)O)[C@@H](C)O)C(C)C)[C@@H](C)O)[C@@H](C)CC)C(=O)N[C@@H](C)C(=O)N[C@@H](CCCCN)C(=O)N[C@@H](C)C(=O)N[C@@H](CCCCN)C(=O)N[C@@H](CC(N)=O)C(=O)N[C@@H](CC(C)C)C(=O)N[C@@H](CCCNC(=N)N)C(=O)N[C@@H](C)C(=O)N[C@@H](CCC(N)=O)C(=O)N[C@@H](C)C(=O)N[C@@H](C)C(=O)N[C@@H](C)C(=O)N[C@@H](CC(N)=O)C(=O)N[C@@H](C)C(=O)N[C@@H](Cc1c[nH]cn1)C(=O)N[C@@H](CC(C)C)C(=O)N[C@@H](CCSC)C(=O)N[C@@H](C)C(=O)N[C@@H](CCC(N)=O)C(=O)N[C@@H](CSC1CC(=O)N(CC)C1=O)C(N)=O) [Cys-variant of stresscopin peptide with N-Ethylsuccinimide (NES) reactive group, SEQ ID NO: 42] | ~1.72 | ~7.75 -log M |
| TKFTLSLDVPTNIMNLLFNIAKAKNLRAQAAANCHLMAQI-NH2 [Cys-variant CRHR2 peptide agonist, SEQ ID NO: 35] | 0.7 | 8.93 -log M |
| TKFTLSLDVPTNIMNLLFNIAKAKNLRAQAAANAHCMAQI-NH2 [Cys-variant CRHR2 peptide agonist, SEQ ID NO: 37] | 1.05 | 8.58 -log M |
| TKFTLSLDVPTNIMNLLFNIAKAKNLRAQAAANAHLMACI-NH2 [Cys-variant CRHR2 peptide agonist, SEQ ID NO: 40] | 0.55 | 9.08 -log M |
| TKFTLSLDVPTNIMNLLFNIAKAKNLRAQAAANAHLMAQC-NH2 [Cys-variant CRHR2 peptide agonist, SEQ ID NO: 41] | 2.07 | 7.45 -log M |
| TKFTLSLDVPTNIMNLLFNIAKAKNLRAQAAANAHLCAQI-NH2 [Cys-variant CRHR2 peptide agonist, SEQ ID NO: 38] | > 2.95 | ~6.67 -log M |
| TKFTLSLDVPTNIMNLLFNIAKAKNLRAQAAANACLMAQI-NH2 [Cys-variant CRHR2 peptide agonist, SEQ ID NO: 36] | 0.42 | 9.1 -log M |
| TKFTLSLDVPTNIMNLLFNIAKAKNLRACAAANAHLMAQI-NH2 [Cys-variant CRHR2 peptide agonist, SEQ ID NO: 30] | 1.28 | 8.4 -log M |
| TKFTLSLDVPTNIMNLLFNIAKAKNLRAQACANAHLMAQI-NH2 [Cys-variant CRHR2 peptide agonist, SEQ ID NO: 32] | 0.11 | 9.41 -log M |
| TKFTLSLDVPTNIMNLLFNIAKAKNLRAQAAACAHLMAQI-NH2 [Cys-variant CRHR2 peptide agonist, SEQ ID NO: 34] | > 3.19 | ~6.32 -log M |

Continued, values first:

| Log DR against h-SCP, cAMP [log10 ratio] | pA50, cAMP | Binder |
| --- | --- | --- |
| 1.55 | 8.12 -log M | TKFTLSLDVPTNIMNLLFNIAKAKNLRAQAAANCHLMAQI (NES-PEG (about 20 kDa) on Cys 34; C-terminal amide) [Pegylated Cys-variant CRHR2 peptide agonist (NES linker, PEG about 20 kDa), SEQ ID NO: 88] |
| 0.98 | 8.48 -log M | TKFTLSLDVPTNIMNLLFNIAKAKNLRAQAAANACLMAQI (NES-PEG (about 20 kDa) on Cys 35; C-terminal amide) [Pegylated Cys-variant CRHR2 peptide agonist (NES linker, PEG about 20 kDa), SEQ ID NO: 89] |
| > 3.68 | ~6 -log M | TKFTLSLDVPTNIMNLLFNIAKAKNLRAQAAACAHLMAQI (NES-PEG (about 20 kDa) on Cys 33; C-terminal amide) [Pegylated Cys-variant CRHR2 peptide agonist (NES linker, PEG about 20 kDa), SEQ ID NO: 87] |
| 0.82 | 8.79 -log M | TKFTLSLDVPTNIMNLLFNIAKAKNLRAQAACNAHLMAQI (NES-PEG (about 20 kDa) on Cys 32; C-terminal amide) [Pegylated Cys-variant CRHR2 peptide agonist (NES linker, PEG about 20 kDa), SEQ ID NO: 86] |
| 1 | 8.74 -log M | TKFTLSLDVPTNIMNLLFNIAKAKNLRCQAAANAHLMAQI (NES-PEG MW5000 on Cys 28; C-terminal amide) [Pegylated Cys-variant CRHR2 peptide agonist (NES-PEG MW5000), SEQ ID NO: 96] |
| 1.55 | 8.12 -log M | TKFTLSLDVPTNIMNLLFNIAKAKNLRAQAAANAHLMCQI (NES-PEG (about 20 kDa) on Cys 38; C-terminal amide) [Pegylated Cys-variant CRHR2 peptide agonist (NES linker, PEG about 20 kDa), SEQ ID NO: 92] |
| > 3.43 | ~6.23 -log M | TKFTLSLDVPTNIMNLLFNIAKAKNLRAQAAANAHLCAQI (NES-PEG (about 20 kDa) on Cys 37; C-terminal amide) [Pegylated Cys-variant CRHR2 peptide agonist (NES linker, PEG about 20 kDa), SEQ ID NO: 91] |
| 0.43 | 9.31 -log M | TKFTLSLDVPTNIMNLLFNIAKAKNLRCQAAANAHLMAQI (NES-PEG MW2000 on Cys 28; C-terminal amide) [Pegylated Cys-variant CRHR2 peptide agonist (NES-PEG MW2000), SEQ ID NO: 95] |
| 1.47 | 8.2 -log M | TKFTLSLDVPTNIMNLLFNIAKAKNLRAQAAANAHLMACI (NES-PEG (about 20 kDa) on Cys 39; C-terminal amide) [Pegylated Cys-variant CRHR2 peptide agonist (NES linker, PEG about 20 kDa), SEQ ID NO: 93] |
| > 2.39 | ~7 -log M | TKFTLSLDVPTNIMNLLFNIAKAKNLRAQAAANAHLMAQC (NES-PEG (about 20 kDa) on Cys 40; C-terminal amide) [Pegylated Cys-variant CRHR2 peptide agonist (NES linker, PEG about 20 kDa), SEQ ID NO: 94] |
| 0.89 | 8.51 -log M | TKFTLSLDVPTNIMNLLFNIAKAKNLRAQACANAHLMAQI (NES-PEG (about 20 kDa) on Cys 31; C-terminal amide) [Pegylated Cys-variant CRHR2 peptide agonist (NES linker, PEG about 20 kDa), SEQ ID NO: 85] |

Source: patent US20100130424A1 (Janssen / Centocor, published 2010)
